Measured values taken from patent US20180207191A1, “HUMAN CANCER MICRO-RNA EXPRESSION PROFILES PREDICTIVE OF CHEMO-RESPONSE” (H. LEE MOFFITT CANCER CENTER AND RESEARCH INSTITUTE, INC., priority 2010, published 2018).

B1: Pre-miR-367: precursor of miR-367 purchased from Ambion; exemplified pre-miR367 precursor sequence SEQ ID NO:158 (nucleic acid)
chain: CCAUUACUGUUGCUAAUAUGCAACUCUGUUGAAUAUAAAUUGGAAUUGCACUUUAGCAAUGGUGAUGG
modifications: listed as RNA, chemistry not given here

Assays:
renal cell line TK-10 = conditions: TK-10 renal cell line; publicly available GI50; cited from earlier work
renal cell line 786-0 = conditions: 786-0 renal cell line; publicly available GI50; cited from earlier work
786-0 cells = test: Growth inhibition assay (CellTiter-Glo), topotecan after miR-367 modulation; type: cell-based, human; conditions: 786-0 cells (topotecan sensitive, high miR-367), topotecan 48 hours, 24 hours after transfection
Method: (§1) miR-367 Transfection. Pre-miR-367 and Anti-miR-367 were purchased from Ambion. Log-phase cells (˜60% confluency) were transfected with 6.25 μM Pre-miR-367 or Anti-miR-367 using siPORT NeoFX transfection reagent (Ambion) at a final concentration of 50 nM according to manufacturer's instructions. Controls included transfection of a non-targeting miRNA (Negative Control #1).
(§2) Growth inhibition assay. Topotecan, obtained from Sequola Research Products Ltd, was dissolved in DMSO (Sigma) at concentration of 20 mM and stored at −20° C. Cells were seeded in 96-well plates (Nunc) at a density of 5×10^5 cells per ml and incubated overnight at 37° C. Cells were incubated with the indicated concentrations of topotecan for 48 hours and cell viability was analyzed using the CellTiter-Glo™ luminescent cell viability assay kit (Promega). Luminescence was recorded using Wallac Victor^2™ 1420 Multilabel Counter (Perkin Elmer Life Sciences). Wells containing medium without cells were used to obtain background luminescence. All experimental wells and controls were set up in triplet.
(§3) The effects of miR-367 modulation on topotecan-induced cell death and growth arrest were evaluated using the CellTiter-Glo' luminescent cell viability assay (FIG. 2). Twenty-four hours after transfection, cells were subject to 48 hours of topotecan treatment.

TK-10 cells = test: as above; type: cell-based, human; conditions: TK-10 cells (topotecan resistant, low miR-367), topotecan 48 hours, 24 hours after transfection
Method: as §1, §2, §3

miR-367 [1] = test: Real-time quantitative RT-PCR of miR-367 after transfection, TK-10 cells; type: cell-based, human; conditions: 50 nM final, QPCR normalized to RNU44
Method: as §1
(§4) Real-time Quantitative RT-PCR of miRNA. Real-time Quantitative RT-PCR was used to validate successful miRNA transfection. TaqMan®MicroRNA Reverse Transcription kit (Applied Biosystems) was used to convert specific miRNAs to cDNA. RNU44 was used as control for quantification. Per Applied Biosystems' protocol, real-time PCR was performed adding 1.34 μl of each completed RT reaction to target TaqMan microRNA Assay reaction with TaqMan Universal PCR Master Mix (final reaction volume equal 20 μl). Samples (786-0 and TK-10 cell lines transfected with Pre-miR-367 precursor, Anti-miR-367 inhibitor, and Anti-miR-inhibitor Negative Control #1) were evaluated in triplicate and run on the Applied Biosystems 7900HT Fast Real-Time PCR System. Assay data was analyzed using SDS 2.2.2 software.

miR-367 [2] = test: Real-time quantitative RT-PCR of miR-367 after transfection, 786-0 cells; type: cell-based, human; conditions: 50 nM final, QPCR normalized to RNU44
Method: as §1, §4

Molecule	log10 GI50 (renal cell line TK-10)	log10 GI50 (renal cell line 786-0)	change in sensitivity to topotecan-induced cell death and growth arrest vs non-targeting control (786-0 cells)	change in sensitivity to topotecan-induced cell death and growth arrest vs non-targeting control (786-0 cells; listed as pre-miR-367)	change in sensitivity to topotecan-induced cell death and growth arrest vs non-targeting control (TK-10 cells)	change in sensitivity to topotecan-induced cell death and growth arrest vs non-targeting control (TK-10 cells; listed as miR-367 precursor)	change in sensitivity to topotecan-induced cell death and growth arrest vs non-targeting control (TK-10 cells; listed as pre-miR-367)	change in sensitivity to topotecan-induced cell death and growth arrest vs non-targeting control (TK-10 cells; listed as precursor to miR-367)	miR-367 levels compared to non-targeting miRNA control (miR-367 [1])	miR-367 levels compared to non-targeting miRNA control (miR-367 [2])
CC[C@@]1(O)C(=O)OCc2c1cc1n(c2=O)Cc2cc3c(CN(C)C)c(O)ccc3nc2-1 [Topotecan]	−5.279	−7.903								
B1			No differences in topotecan sensitivity	increase in topotecan-induced cell death	significantly increased cell death and growth arrest induced by topotecan	increased sensitivity to topotecan	increase in topotecan-induced cell death	significant increase in topotecan-induced cell death and growth arrest	increase	increase
